This note sets out measurements from patent publication US20140087995A1 (published 2014).

Assay [1] addresses T1, rat calcitonin receptor (rat, UniProt P32214 25-516).
T1 construct: whole, on cells; Membranes of transiently transfected BHK tk'ts 13 cells (Assay VIII); also called rCTR
T1 sequence (looked up): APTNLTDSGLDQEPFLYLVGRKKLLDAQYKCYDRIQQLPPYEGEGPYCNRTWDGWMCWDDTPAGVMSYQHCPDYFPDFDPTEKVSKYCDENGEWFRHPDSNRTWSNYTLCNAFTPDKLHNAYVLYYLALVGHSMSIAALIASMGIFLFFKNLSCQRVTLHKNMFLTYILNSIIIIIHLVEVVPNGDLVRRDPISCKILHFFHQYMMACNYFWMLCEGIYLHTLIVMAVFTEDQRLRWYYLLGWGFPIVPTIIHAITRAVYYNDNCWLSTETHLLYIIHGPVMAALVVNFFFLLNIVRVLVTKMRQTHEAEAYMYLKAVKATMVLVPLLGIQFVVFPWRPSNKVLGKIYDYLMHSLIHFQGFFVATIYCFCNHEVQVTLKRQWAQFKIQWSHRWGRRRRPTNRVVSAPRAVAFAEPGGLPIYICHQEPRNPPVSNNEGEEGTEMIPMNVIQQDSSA
Briefly: SPA competition with 125I-calcitonin, membranes of BHK cells with rat calcitonin receptor (Assay VIII).

Assay [2] has as its target T1, rat calcitonin receptor. Briefly: ratio IC50 rat calcitonin receptor / IC50 rat amylin receptor (reference).
The target of assay [3] is T2, human calcitonin receptor (human, UniProt P30988 25-474).
T2 construct: whole, on cells; Membranes of a stably transfected BHK cell line (Assay VII); also called hCTR; hCT
T2 sequence (looked up): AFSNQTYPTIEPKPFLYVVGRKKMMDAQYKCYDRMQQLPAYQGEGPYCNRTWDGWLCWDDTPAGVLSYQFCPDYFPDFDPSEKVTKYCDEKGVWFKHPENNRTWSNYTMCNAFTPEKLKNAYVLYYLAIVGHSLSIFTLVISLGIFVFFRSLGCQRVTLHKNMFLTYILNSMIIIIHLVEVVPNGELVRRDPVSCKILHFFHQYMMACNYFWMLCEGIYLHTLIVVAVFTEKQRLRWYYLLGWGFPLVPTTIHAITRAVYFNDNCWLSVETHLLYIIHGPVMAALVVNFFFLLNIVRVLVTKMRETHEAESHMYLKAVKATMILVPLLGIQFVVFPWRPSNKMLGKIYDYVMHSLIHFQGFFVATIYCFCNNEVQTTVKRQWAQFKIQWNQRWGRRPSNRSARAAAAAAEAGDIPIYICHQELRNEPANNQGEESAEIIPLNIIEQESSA
The assay can be described thus: ratio IC50 human calcitonin receptor / IC50 human amylin receptor (reference). The method, boiled down:
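Scintillation proximity competition binding on cell membranes at 35 ng/μL with SPA beads, in 50 mM Hepes pH 7.4, 1 mM CaCl2, 5 mM MgCl₂, 0.1% OA, 0.02% Tween20. Incubated 120 min at 25° C with shaking. IC₅₀ from one-site competition fit.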

The target in assay [4] is T3, rat amylin receptor (rat calcitonin receptor + rat RAMP 3) (rat, UniProt P32214 25-516; Q9JJ73 23-147).
T3 construct: whole, on cells; Membranes of transiently transfected BHK tk'ts 13 cells (Assay VI); also called rAmylin-R; rat amylin 3(a) receptor
T3 sequence (looked up) 1: T1 sequence (looked up)
T3 sequence (looked up) 2: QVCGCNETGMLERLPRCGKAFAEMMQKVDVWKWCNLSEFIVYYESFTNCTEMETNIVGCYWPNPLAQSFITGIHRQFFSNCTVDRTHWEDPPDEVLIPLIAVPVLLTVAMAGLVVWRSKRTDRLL
Briefly: SPA competition with 125I-rat amylin, membranes of BHK cells with rat calcitonin receptor + rat RAMP3 (Assay VI).

Numbered stars: 1 amine (or outer) side, 2 acyl side, 3 side chain; on linkers, the order of the positions; unused ones are H or OH. Bridge positions count the residues as written; N and C are the ends. Side chains are listed from the residue outwards. Ends that are not written are not given here. * marks the point of attachment. C20 diacid = O=C(O)CCCCCCCCCCCCCCCCCCC(=O)*; γGlu = O=C(O)[C@H](CCC(=O)[*:2])N[*:1]

B1: N^-1-[(4S)-4-carboxy-4-(19-carboxynonadecanoylamino)butanoyl]-Gly[Arg1,His14,Arg17,Pro21,Pro27,His34]-h-amylin (peptide)
peptide: {C20 diacid-γGlu}-GRCNTATCATQRLAHFLRHSSPNFGAIPSSTNVGHNTY-NH2
modifications: disulfide 3-8
SMILES: CC[C@H](C)[C@H](NC(=O)[C@H](C)NC(=O)CNC(=O)[C@H](Cc1ccccc1)NC(=O)[C@H](CC(N)=O)NC(=O)[C@@H]1CCCN1C(=O)[C@H](CO)NC(=O)[C@H](CO)NC(=O)[C@H](Cc1c[nH]cn1)NC(=O)[C@H](CCCNC(=N)N)NC(=O)[C@H](CC(C)C)NC(=O)[C@H](Cc1ccccc1)NC(=O)[C@H](Cc1c[nH]cn1)NC(=O)[C@H](C)NC(=O)[C@H](CC(C)C)NC(=O)[C@H](CCCNC(=N)N)NC(=O)[C@H](CCC(N)=O)NC(=O)[C@@H](NC(=O)[C@H](C)NC(=O)[C@@H]1CSSC[C@H](NC(=O)[C@H](CCCNC(=N)N)NC(=O)CNC(=O)CC[C@H](NC(=O)CCCCCCCCCCCCCCCCCCC(=O)O)C(=O)O)C(=O)N[C@@H](CC(N)=O)C(=O)N[C@@H]([C@@H](C)O)C(=O)N[C@@H](C)C(=O)N[C@@H]([C@@H](C)O)C(=O)N1)[C@@H](C)O)C(=O)N1CCC[C@H]1C(=O)N[C@@H](CO)C(=O)N[C@@H](CO)C(=O)N[C@H](C(=O)N[C@@H](CC(N)=O)C(=O)N[C@H](C(=O)NCC(=O)N[C@@H](Cc1c[nH]cn1)C(=O)N[C@@H](CC(N)=O)C(=O)N[C@H](C(=O)N[C@@H](Cc1ccc(O)cc1)C(N)=O)[C@@H](C)O)C(C)C)[C@@H](C)O
notes: also called compound 100
For orientation: IC50 means the concentration that gives 50% inhibition. With B1, the half-maximal inhibitory concentration (IC50) in the assay with rat calcitonin receptor [1] came out at 311 nM; in assay [4], 11.2 nM. Besides, the “Ratio rCT/rAmylin binding” value in the assay with rat calcitonin receptor [2] was 27.7. In addition, in assay [3], the “Ratio hCT/hAmylin binding” value is 65.3.

B2: N^-1-[(4S)-4-carboxy-4-(19-carboxynonadecanoylamino)butanoyl]-Gly[Arg1,Ala14,Arg17,Pro21,Pro27,His34]-h-amylin (peptide)
peptide: {C20 diacid-γGlu}-GRCNTATCATQRLAAFLRHSSPNFGAIPSSTNVGHNTY-NH2
modifications: disulfide 3-8
SMILES: CC[C@H](C)[C@H](NC(=O)[C@H](C)NC(=O)CNC(=O)[C@H](Cc1ccccc1)NC(=O)[C@H](CC(N)=O)NC(=O)[C@@H]1CCCN1C(=O)[C@H](CO)NC(=O)[C@H](CO)NC(=O)[C@H](Cc1c[nH]cn1)NC(=O)[C@H](CCCNC(=N)N)NC(=O)[C@H](CC(C)C)NC(=O)[C@H](Cc1ccccc1)NC(=O)[C@H](C)NC(=O)[C@H](C)NC(=O)[C@H](CC(C)C)NC(=O)[C@H](CCCNC(=N)N)NC(=O)[C@H](CCC(N)=O)NC(=O)[C@@H](NC(=O)[C@H](C)NC(=O)[C@@H]1CSSC[C@H](NC(=O)[C@H](CCCNC(=N)N)NC(=O)CNC(=O)CC[C@H](NC(=O)CCCCCCCCCCCCCCCCCCC(=O)O)C(=O)O)C(=O)N[C@@H](CC(N)=O)C(=O)N[C@@H]([C@@H](C)O)C(=O)N[C@@H](C)C(=O)N[C@@H]([C@@H](C)O)C(=O)N1)[C@@H](C)O)C(=O)N1CCC[C@H]1C(=O)N[C@@H](CO)C(=O)N[C@@H](CO)C(=O)N[C@H](C(=O)N[C@@H](CC(N)=O)C(=O)N[C@H](C(=O)NCC(=O)N[C@@H](Cc1c[nH]cn1)C(=O)N[C@@H](CC(N)=O)C(=O)N[C@H](C(=O)N[C@@H](Cc1ccc(O)cc1)C(N)=O)[C@@H](C)O)C(C)C)[C@@H](C)O
Consider B2, for which the IC50 worked out at 492 nM with rat calcitonin receptor [1] and 8.07 nM in assay [4]. The “Ratio rCT/rAmylin binding” value in the assay with rat calcitonin receptor [2] stood at 60.9. Also, the “Ratio hCT/hAmylin binding” value in assay [3] is 68.6.

B3: N^-1-[(4S)-4-carboxy-4-(19-carboxynonadecanoylamino)butanoyl]-Gly[Arg1,His14,Arg17,Pro21,Pro27,Pro34]-h-amylin (peptide)
peptide: {C20 diacid-γGlu}-GRCNTATCATQRLAHFLRHSSPNFGAIPSSTNVGPNTY-NH2
modifications: disulfide 3-8
SMILES: CC[C@H](C)[C@H](NC(=O)[C@H](C)NC(=O)CNC(=O)[C@H](Cc1ccccc1)NC(=O)[C@H](CC(N)=O)NC(=O)[C@@H]1CCCN1C(=O)[C@H](CO)NC(=O)[C@H](CO)NC(=O)[C@H](Cc1c[nH]cn1)NC(=O)[C@H](CCCNC(=N)N)NC(=O)[C@H](CC(C)C)NC(=O)[C@H](Cc1ccccc1)NC(=O)[C@H](Cc1c[nH]cn1)NC(=O)[C@H](C)NC(=O)[C@H](CC(C)C)NC(=O)[C@H](CCCNC(=N)N)NC(=O)[C@H](CCC(N)=O)NC(=O)[C@@H](NC(=O)[C@H](C)NC(=O)[C@@H]1CSSC[C@H](NC(=O)[C@H](CCCNC(=N)N)NC(=O)CNC(=O)CC[C@H](NC(=O)CCCCCCCCCCCCCCCCCCC(=O)O)C(=O)O)C(=O)N[C@@H](CC(N)=O)C(=O)N[C@@H]([C@@H](C)O)C(=O)N[C@@H](C)C(=O)N[C@@H]([C@@H](C)O)C(=O)N1)[C@@H](C)O)C(=O)N1CCC[C@H]1C(=O)N[C@@H](CO)C(=O)N[C@@H](CO)C(=O)N[C@H](C(=O)N[C@@H](CC(N)=O)C(=O)N[C@H](C(=O)NCC(=O)N1CCC[C@H]1C(=O)N[C@@H](CC(N)=O)C(=O)N[C@H](C(=O)N[C@@H](Cc1ccc(O)cc1)C(N)=O)[C@@H](C)O)C(C)C)[C@@H](C)O
B3: the figures for the IC50 (with rat calcitonin receptor [1]; in assay [4]) were 65.9 nM and 0.674 nM, respectively. In addition, in the assay with rat calcitonin receptor [2], the “Ratio rCT/rAmylin binding” value came out at 97.7. In assay [3], the “Ratio hCT/hAmylin binding” value turned out to be 36.2.

B4: N^-1-[(4S)-4-carboxy-4-(19-carboxynonadecanoylamino)butanoyl]-Gly[Arg1,Ala14,Arg17,Pro21,Pro27,Pro34]-h-amylin (peptide)
peptide: {C20 diacid-γGlu}-GRCNTATCATQRLAAFLRHSSPNFGAIPSSTNVGPNTY-NH2
modifications: disulfide 3-8
As to B4, the IC50 is 56.3 nM with rat calcitonin receptor [1] and 0.436 nM in assay [4]. The “Ratio rCT/rAmylin binding” value in the assay with rat calcitonin receptor [2] is 129. Further, the “Ratio hCT/hAmylin binding” value in assay [3] came out at 26.5.

B5: N^ε1-[(4S)-4-carboxy-4-[[(4S)-4-carboxy-4-(19-carboxynonadecanoylamino)butanoyl]amino]butanoyl]-[Ser14,Arg17,Pro21,Pro27,Pro34,Glu35]-h-amylin (peptide)
peptide: K([γGlu-γGlu-C20 diacid])CNTATCATQRLASFLRHSSPNFGAIPSSTNVGPETY-NH2
modifications: disulfide 2-7; N-terminus assumed
SMILES: CC[C@H](C)[C@H](NC(=O)[C@H](C)NC(=O)CNC(=O)[C@H](Cc1ccccc1)NC(=O)[C@H](CC(N)=O)NC(=O)[C@@H]1CCCN1C(=O)[C@H](CO)NC(=O)[C@H](CO)NC(=O)[C@H](Cc1c[nH]cn1)NC(=O)[C@H](CCCNC(=N)N)NC(=O)[C@H](CC(C)C)NC(=O)[C@H](Cc1ccccc1)NC(=O)[C@H](CO)NC(=O)[C@H](C)NC(=O)[C@H](CC(C)C)NC(=O)[C@H](CCCNC(=N)N)NC(=O)[C@H](CCC(N)=O)NC(=O)[C@@H](NC(=O)[C@H](C)NC(=O)[C@@H]1CSSC[C@H](NC(=O)[C@@H](N)CCCCNC(=O)CC[C@H](NC(=O)CC[C@H](NC(=O)CCCCCCCCCCCCCCCCCCC(=O)O)C(=O)O)C(=O)O)C(=O)N[C@@H](CC(N)=O)C(=O)N[C@@H]([C@@H](C)O)C(=O)N[C@@H](C)C(=O)N[C@@H]([C@@H](C)O)C(=O)N1)[C@@H](C)O)C(=O)N1CCC[C@H]1C(=O)N[C@@H](CO)C(=O)N[C@@H](CO)C(=O)N[C@H](C(=O)N[C@@H](CC(N)=O)C(=O)N[C@H](C(=O)NCC(=O)N1CCC[C@H]1C(=O)N[C@@H](CCC(=O)O)C(=O)N[C@H](C(=O)N[C@@H](Cc1ccc(O)cc1)C(N)=O)[C@@H](C)O)C(C)C)[C@@H](C)O
notes: also called compound 120
Consider B5, for which the half-inhibitory concentration (IC50) in the assay with rat calcitonin receptor [1] is 140 nM; in assay [4], 0.161 nM. In the assay with rat calcitonin receptor [2], the “Ratio rCT/rAmylin binding” value was found to be 868. Besides, the “Ratio hCT/hAmylin binding” value in assay [3] came out at 45.3.
